Results as given in doi:10.1101/2020.05.11.089458 (bioRxiv, 2020).

Target: the molecule itself
Test: SEC

Protein | stoichiometry N
TatB^22-171 (soluble membrane-extrinsic cytoplasmic domain of E. coli TatB) (domain or fragment) PQRLPVAVKTVAGWIRALRSLATTVQNELTQELKLQEFQDSLKKVEKASLTNLTPELKASMDELRQAAESMKRSYVANDPEKASDEAHTIHNPVVKDNEAAHEGVTPAAAQTQASSPEQKPETTPEPVVKPAADAEPKTAAPSPSSSDKP | 4
YpTatB^22-220 (soluble cytoplasmic domain of Yersinia pseudotuberculosis TatB) (domain or fragment) PERLPVAVRTVSGWIRTLRSLAATVQNELAQELKLQELQDSLKKVEQAGLQNLTPELKASMDELKEAAEALKRSYHVDAGSEAPHTIHNPLVTEPEAIHDGVTPAEPATQVSALAQAPNILEAGTASVADSVVEAAPVTTVKSVVQGEVLVKSTPVQEVGLADVMDKPVTKQQIDTIDSHGTDLSSAGPSRIHQPGGDQ | 3
